One experiment addresses T1, Gal4 DBD-Pan1^687–1190 (yeast, UniProt P32521 687-1190).
T1 sequence (looked up): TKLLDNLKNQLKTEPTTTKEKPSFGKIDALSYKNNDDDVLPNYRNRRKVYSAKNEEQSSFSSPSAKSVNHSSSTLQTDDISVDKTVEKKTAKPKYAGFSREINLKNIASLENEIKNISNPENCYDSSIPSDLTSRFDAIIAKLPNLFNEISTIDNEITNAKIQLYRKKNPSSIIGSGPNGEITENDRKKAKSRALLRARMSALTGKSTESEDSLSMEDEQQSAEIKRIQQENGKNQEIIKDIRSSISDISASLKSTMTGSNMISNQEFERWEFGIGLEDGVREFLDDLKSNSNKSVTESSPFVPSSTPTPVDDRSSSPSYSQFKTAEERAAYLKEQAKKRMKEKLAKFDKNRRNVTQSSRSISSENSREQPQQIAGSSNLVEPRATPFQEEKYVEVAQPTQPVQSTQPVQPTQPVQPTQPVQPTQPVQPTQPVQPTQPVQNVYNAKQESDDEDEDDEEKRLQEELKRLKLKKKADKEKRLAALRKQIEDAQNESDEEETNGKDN
The experiment in a line: two-hybrid.

The next experiment has as its target T2, Gal4 DBD-Pan1^792–948 (yeast, UniProt P32521 792-948).
T2 sequence (looked up): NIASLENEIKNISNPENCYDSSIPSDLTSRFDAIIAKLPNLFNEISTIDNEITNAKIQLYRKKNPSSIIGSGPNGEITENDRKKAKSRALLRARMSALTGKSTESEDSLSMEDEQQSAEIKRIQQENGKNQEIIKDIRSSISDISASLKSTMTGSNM
The experiment can be described thus: two-hybrid.

A further experiment addresses T3, Gal4 DBD-Pan1^687–846 (yeast, UniProt P32521 687-846).
T3 sequence (looked up): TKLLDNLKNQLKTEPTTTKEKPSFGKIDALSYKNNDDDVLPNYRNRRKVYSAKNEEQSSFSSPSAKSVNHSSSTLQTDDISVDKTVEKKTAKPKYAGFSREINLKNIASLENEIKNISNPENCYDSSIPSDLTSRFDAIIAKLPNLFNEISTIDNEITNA
The experiment can be described thus: two-hybrid.

Experiment [1] has as its target T4, Pan1 (recombinantly purified, unpublished data) (yeast, UniProt P32521 1-1480).
T4 sequence (looked up): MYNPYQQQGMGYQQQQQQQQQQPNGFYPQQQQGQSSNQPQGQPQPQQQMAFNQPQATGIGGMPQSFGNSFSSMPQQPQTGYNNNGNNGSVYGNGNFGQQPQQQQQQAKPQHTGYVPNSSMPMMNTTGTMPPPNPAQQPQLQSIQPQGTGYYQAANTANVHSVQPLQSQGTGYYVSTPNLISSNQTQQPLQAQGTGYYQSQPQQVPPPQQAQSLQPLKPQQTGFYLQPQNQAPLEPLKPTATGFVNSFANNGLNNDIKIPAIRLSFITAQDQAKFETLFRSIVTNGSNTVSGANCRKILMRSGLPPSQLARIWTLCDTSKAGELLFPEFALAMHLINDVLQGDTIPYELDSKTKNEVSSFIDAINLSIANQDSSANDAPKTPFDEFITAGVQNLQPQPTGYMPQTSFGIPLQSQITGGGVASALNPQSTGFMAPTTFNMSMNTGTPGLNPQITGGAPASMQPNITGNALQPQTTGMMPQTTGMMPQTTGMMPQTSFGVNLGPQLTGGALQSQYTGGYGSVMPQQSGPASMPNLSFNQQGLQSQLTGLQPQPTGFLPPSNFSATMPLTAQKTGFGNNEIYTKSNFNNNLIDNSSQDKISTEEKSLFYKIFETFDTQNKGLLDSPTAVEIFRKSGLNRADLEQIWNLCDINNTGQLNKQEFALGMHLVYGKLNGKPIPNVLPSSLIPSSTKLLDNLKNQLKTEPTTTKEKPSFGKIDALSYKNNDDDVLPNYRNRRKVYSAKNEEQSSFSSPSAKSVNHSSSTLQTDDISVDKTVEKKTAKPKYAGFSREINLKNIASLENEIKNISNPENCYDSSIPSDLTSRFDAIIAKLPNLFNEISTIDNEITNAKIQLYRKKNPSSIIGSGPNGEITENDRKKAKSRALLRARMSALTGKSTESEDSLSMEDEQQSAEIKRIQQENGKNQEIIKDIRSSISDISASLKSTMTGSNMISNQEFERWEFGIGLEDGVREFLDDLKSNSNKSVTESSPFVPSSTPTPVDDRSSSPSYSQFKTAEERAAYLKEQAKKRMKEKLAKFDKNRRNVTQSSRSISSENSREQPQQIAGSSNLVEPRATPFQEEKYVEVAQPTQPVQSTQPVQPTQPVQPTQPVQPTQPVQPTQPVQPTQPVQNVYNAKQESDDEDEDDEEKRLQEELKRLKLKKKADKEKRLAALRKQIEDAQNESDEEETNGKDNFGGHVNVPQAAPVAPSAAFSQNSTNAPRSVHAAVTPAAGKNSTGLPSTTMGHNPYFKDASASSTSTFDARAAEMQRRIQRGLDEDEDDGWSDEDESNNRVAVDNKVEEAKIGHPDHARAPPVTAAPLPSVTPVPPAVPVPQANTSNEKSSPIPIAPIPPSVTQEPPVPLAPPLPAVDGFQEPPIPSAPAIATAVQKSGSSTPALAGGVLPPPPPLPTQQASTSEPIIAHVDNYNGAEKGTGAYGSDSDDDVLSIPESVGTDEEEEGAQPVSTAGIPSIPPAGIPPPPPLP

B1: Gal4 AD-End3^176–349 (domain or fragment, yeast, UniProt P39013 176-349, looked up)
chain: LINPQNLPSIDRDPTFYFIHCLRQRNDLGAEIPASLPNSLAEVCNKKQLSYDLRSSQPPTKRKEEANEVDNLRDNGQNSSSDSSGSNVLSNEDSIKQKYASLTDDQVANMREQLEGLLNYKKSEKTQGGSKLSKRINIRSITDDLDNIEQQVEVLENYLNNKRHELQALQAEIN
For the molecule B1, the “Miller Units” value with Gal4 DBD-Pan1^687–1190 amounted to 412 Miller Units; with Gal4 DBD-Pan1^792–948, 99.7 Miller Units; with Gal4 DBD-Pan1^687–846, 80.1 Miller Units.

B2: End3 (recombinantly purified, unpublished data) (natural protein, yeast, UniProt P39013 1-349, looked up)
chain: MPKLEQFEIKKYWQIFSGLKPIENKVNHDQVLPILYNSKLDSSVLNKIWFLADIDDDDNLDFEEFVICMRLIFDMVNKNISSVPDELPDWLIPGSKVNLIKERKKRKQIENADLPPKKEIKVDWYMSPDDLNQYEKIYNSCAKLTDGTITFNELSTKLSTKFFNISKTDLNKVWSLINPQNLPSIDRDPTFYFIHCLRQRNDLGAEIPASLPNSLAEVCNKKQLSYDLRSSQPPTKRKEEANEVDNLRDNGQNSSSDSSGSNVLSNEDSIKQKYASLTDDQVANMREQLEGLLNYKKSEKTQGGSKLSKRINIRSITDDLDNIEQQVEVLENYLNNKRHELQALQAEIN
As to B2, the “stoichiometry N” value in experiment [1] amounted to 1.

The term stoichiometry N denotes the number of molecules, sites or subunits per partner or assembly.

(Values after paper PMC3855908 (Traffic (Copenhagen, Denmark), 2013).)
